Substitutions are numbered along the chain they refer to.

In assay [1] the target is KRAS wt(6-14) peptide … with HLA-A2 and b2M on peptide-pulsed T2 cells (human). As to the kind of experiment: flow cytometry, phage-displayed scFv on peptide-pulsed T2 cells (FIG. 5).
Procedure: (§1) Cells were stained with 10 μL of precipitated phage per 100 μL of cells, washed and stained with rabbit anti-M13 antibody, then washed and stained with anti-Rabbit-PE antibody. Cells were stained with a live/dead Near-IR dye, washed, and analyzed by an LSRII flow cytometer.
(§2) The pulsed cells were pelleted, washed once in cold stain buffer (PBS containing 0.5% BSA, 2 mM EDTA, and 0.1% sodium azide), and resuspended in 100 μL of stain buffer. Phage staining was performed on ice with 10 uL (approximately 1×10⁹) phage for 1 hour in 100 uL total volume, followed by one 4 mL wash in cold stain buffer. Cells were then stained with 1 uL of rabbit anti-M13 antibody (Pierce, Rockford, Ill.) in 100 uL total volume on ice for 1 hour and washed once with 4 mL of cold stain buffer. Cells were stained with anti-rabbit-PE (Biolegend) on ice for 1 hour in 100 uL total volume, followed by incubation with LIVE/DEAD Fixable Near-IR Dead Cell Stain (Thermo Fisher) for 10 min at room temperature per manufacturer's instructions. Cells were washed once in 4 mL of stain buffer followed by resuspension in 300 uL of stain buffer before analysis. Stained cells were analyzed using an LSRII flow cytometer (Becton Dickinson, Mansfield, Mass.).
Assay [2] concerns the target T1, KRAS wt(7-16) peptide … with HLA-A3 and b2M on cells (human).
T1 construct: peptide-pulsed T2A3 cells in flow cytometry
As to the kind of experiment: flow cytometry, phage-displayed scFv on peptide-pulsed T2A3 cells (FIG. 6). For orientation: In flow cytometry, cells or beads pass a laser one at a time.
Procedure: as §1, §2

B1: KRAS_G12V_A2_A1 (scFv)
scFv: DIQMTQSPSSLSASVGDRVTITCRASQDVNTAVAWYQQKPGKAPKLLIYSASFLYSGVPSRFSGSRSGTDFTLTISSLQPEDFATYYCQQWYSSPVTFGQGTKVEIKRTGGGSGGGGSGGGASEVQLVESGGGLVQPGGSLRLSCAASGFNINWANMHWVRQAPGKGLEWVAQISPPYDYTNYADSVKGRFTISADTSKNTAYLQMNSLRAEDTAVYYCSRSYSYYFDYWGQGTLVTVSS
Turning to B1, the binding result in assay [1] was “no binding”.

B2: KRAS_G12V_A2_A5 (scFv)
scFv: B1 scFv with N153Y, A155S, N156H, Q173I, P176S, P177F, Y178E, D179G, N182Y, F227M
Regarding B2, the binding result in assay [1] was “no binding”.

B3: KRAS_G12V_A2_C1 (scFv)
scFv: DIQMTQSPSSLSASVGDRVTITCRASQDVNTAVAWYQQKPGKAPKLLIYSASFLYSGVPSRFSGSRSGTDFTLTISSLQPEDFATYYCQQYYSRPVTFGQGTKVEIKRTGGGSGGGGSGGGASEVQLVESGGGLVQPGGSLRLSCAASGFNIYLHDMHWVRQAPGKGLEWVAQIIPAIDYTNYADSVKGRFTISADTSKNTAYLQMNSLRAEDTAVYYCSRRDGYYFDYWGQGTLVTVSS
As to B3, the binding result in assay [1] was “no binding”.

B4: KRAS_G12CDV_A3_c118 (scFv)
scFv: DIQMTQSPSSLSASVGDRVTITCRASQDVNTAVAWYQQKPGKAPKLLIYSASFLYSGVPSRFSGSRSGTDFTLTISSLQPEDFATYYCQQYYYPPITFGQGTKVEIKRTGGGSGGGGSGGGASEVQLVESGGGLVQPGGSLRLSCAASGFNVSHTGMHWVRQAPGKGLEWVAVVGPGKGYTYYADSVKGRFTISADTSKNTAYLQMNSLRAEDTAVYYCSRKTYYAFDYWGQGTLVTVSS
As to B4, the binding result in assay [2] is “no binding”.

B5: KRAS_G12CV_A3_c15 (scFv)
scFv: DIQMTQSPSSLSASVGDRVTITCRASQDVNTAVAWYQQKPGKAPKLLIYSASFLYSGVPSRFSGSRSGTDFTLTISSLQPEDFATYYCQQSYGSGSPWTFGQGTKVEIKRTGGGSGGGGSGGGASEVQLVESGGGLVQPGGSLRLSCAASGFNIVGGGIHWVRQAPGKGLEWVAKIYPQGDYTYYADSVKGRFTISADTSKNTAYLQMNSLRAEDTAVYYCSRDSSYLAFDYWGQGTLVTVSS
On to B5, for which, in assay [2], the binding result is on record as “no binding”.

B6: KRAS_G12CDV_A3_c19 (scFv)
scFv: DIQMTQSPSSLSASVGDRVTITCRASQDVNTAVAWYQQKPGKAPKLLIYSASFLYSGVPSRFSGSRSGTDFTLTISSLQPEDFATYYCQQTYYSPWTFGQGTKVEIKRTGGGSGGGGSGGGASEVQLVESGGGLVQPGGSLRLSCAASGFNIRSYAMHWVRQAPGKGLEWVAQVGPGKGYTYYADSVKGRFTISADTSKNTAYLQMNSLRAEDTAVYYCSRNFQSTSHAFDYWGQGTLVTVSS
For the molecule B6, in assay [2], the binding result is given as “no binding”.

The record behind these values is US20200079854A1 (Johns Hopkins, published 2020).
